Tests used:
CLV1 = target: T1, CLV1 (Arabidopsis thaliana, UniProt Q9SYQ8); assay: Yeast two-hybrid interaction with CLV1-KD; assay type: binding
T1 construct: expressed in transfected cells; host or cells: yeast strain MaV203
T1 sequence (Q9SYQ8 692-968 limits assumed): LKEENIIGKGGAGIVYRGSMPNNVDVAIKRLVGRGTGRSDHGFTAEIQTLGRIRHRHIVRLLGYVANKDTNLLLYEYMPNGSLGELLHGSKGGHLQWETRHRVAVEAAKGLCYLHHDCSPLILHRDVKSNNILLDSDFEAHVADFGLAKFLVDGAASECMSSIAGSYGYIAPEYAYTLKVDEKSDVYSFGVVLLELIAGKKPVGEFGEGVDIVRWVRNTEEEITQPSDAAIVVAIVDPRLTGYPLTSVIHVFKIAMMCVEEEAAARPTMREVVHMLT
Protocol: BKI1 fused with GAL4-AD (BKI1-pEXAD502) interacts with the intracellular domain of BRI1 (BRI1-KD), but not CLV1 (CLV1-KD), BRL1 (BRL1-KD), and BRL3 (BRL3-KD), fused with GAL4-DB (in pDBLeu) in yeast. pDBLeu was used as a negative control. Each spot from left to right contains 10 μl yeast cell culture with OD600=0.2, 0.04, 0.008, and 0.0016.

[1] = target: kinase-inactive BRI1 (mBRI1-KD) (Arabidopsis thaliana, UniProt O22476, K911E); details: yeast two-hybrid, ONPG liquid culture assay
kinase-inactive BRI1 (mBRI1-KD), sequence (O22476 828-1196 K911E): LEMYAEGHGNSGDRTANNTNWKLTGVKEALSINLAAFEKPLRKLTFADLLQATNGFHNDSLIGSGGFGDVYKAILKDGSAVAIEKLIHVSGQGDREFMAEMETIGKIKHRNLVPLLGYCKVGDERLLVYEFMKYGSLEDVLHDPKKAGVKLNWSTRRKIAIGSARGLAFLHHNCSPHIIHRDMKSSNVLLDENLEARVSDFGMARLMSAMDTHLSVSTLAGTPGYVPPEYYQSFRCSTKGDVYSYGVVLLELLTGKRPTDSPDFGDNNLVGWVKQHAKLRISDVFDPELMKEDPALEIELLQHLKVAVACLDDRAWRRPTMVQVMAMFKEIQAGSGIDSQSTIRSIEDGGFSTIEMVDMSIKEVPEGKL
Protocol: (§1) A ProQuest Two-Hybrid system with Gateway technology (Invitrogen) was used. […] The full-length (BKI1-FL), and various truncated proteins, 1-252 (BKI1-ΔCT1), 1-299 (BKI1-ΔCT2), and 253-337 (BKI1-CT) of BKI1 were cloned into the pEXPAD502 vector. The kinase domain of NIK1 (NIK1-KD) (Fontes et al. (2004) Genes Dev. 18:2545), BAK1 (BAK1-KD), CLV1 (CLV1-KD), BRL1 (BRL1-KD), BRL3 (BRL3-KD), full length TTL, and full-length BIN2 were cloned into the pDBLeu vector. Interactions were tested on SD medium minus Leu, Trp, and His, and containing 25 mM 3-Amino-1,2,4-Triazole (3AT), using the yeast strain MaV203 according to the manufacturer's manual.

BRI1 kinase = target: T2, BRI1 kinase (Arabidopsis thaliana, UniProt O22476); assay: In vitro phosphorylation of MBP-BKI1 by BRI1 kinase; assay type: biochemical; details: MBP-BKI1, BRI1-KD-HIS, 200 μM ATP; read-out: Km as substrate of BRI1 kinase in vitro
T2 construct: The intracellular domain of BRI1(BRI1-KD) was cloned into pETBlue2 (Novagen) with a C-terminal His tag; made in house; host or cells: E. coli BL21 (DE3) Codon plus RIL
T2 sequence (O22476 883-1158 limits assumed): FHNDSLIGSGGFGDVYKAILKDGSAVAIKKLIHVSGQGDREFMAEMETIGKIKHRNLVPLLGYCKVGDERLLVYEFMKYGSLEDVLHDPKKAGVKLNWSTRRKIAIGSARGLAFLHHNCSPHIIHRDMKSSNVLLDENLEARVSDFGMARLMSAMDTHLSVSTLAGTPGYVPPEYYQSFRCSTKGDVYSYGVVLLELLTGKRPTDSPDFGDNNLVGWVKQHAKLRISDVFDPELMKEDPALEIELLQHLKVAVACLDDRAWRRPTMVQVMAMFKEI
Protocol: The intracellular domain of BRI1(BRI1-KD) was cloned into pETBlue2 (Novagen) with a C-terminal His tag. BKI1 was cloned into the pMAL-2cX vector (New England Biolabs) resulting in an Nterminal maltose-binding protein (MBP) fusion. BRI1-KD-HIS and MBP-BKI1 fusion proteins were expressed in BL21 (DE3) Codon plus RIL (Stratagene) and purified with Ni-NTA agarose (Qiagen) and […] (New England Biolabs), respectively. For the phosphorylation assays, each reaction contained 50 mM HEPES [pH7.4], 10 mM MgCl2, 10 mM MnCl2, 1 mM DTT, 200 μM ATP, 1 μl (10 μCi) [γ-32P] ATP, 0.5 μl of BRI1-His, different amounts of MBP-BKI1, and double deionized H2O in a final volume of 24 μl. Reactions were terminated by addition of 8 μl of 4×SDS loading buffer. Samples were separated on a 4-20% Tris-Glycine SDS-PAGE gel (Invitrogen), which was then stained, destained, dried, and visualized and quantified using a PhosphorImager. The kinetic analysis of the phosphorylation of MBP-BKI1 by BRI1 kinase was conducted with a GraphPad Prism 4 (http://www.graphpad.com/prism/Prism.htm). […] The BKI1-FLAG protein was detected by immunoblot analysis with anti-FLAG antibody.

BAK1 = target: T3, BAK1 (Arabidopsis thaliana, UniProt Q94F62); assay: Yeast two-hybrid interaction with BAK1-KD; assay type: binding
T3 construct: kinase domains of other receptor-like kinases tested, including BAK1 and NIK1; expressed in transfected cells; host or cells: yeast strain MaV203
T3 sequence (Q94F62 289-576 limits assumed): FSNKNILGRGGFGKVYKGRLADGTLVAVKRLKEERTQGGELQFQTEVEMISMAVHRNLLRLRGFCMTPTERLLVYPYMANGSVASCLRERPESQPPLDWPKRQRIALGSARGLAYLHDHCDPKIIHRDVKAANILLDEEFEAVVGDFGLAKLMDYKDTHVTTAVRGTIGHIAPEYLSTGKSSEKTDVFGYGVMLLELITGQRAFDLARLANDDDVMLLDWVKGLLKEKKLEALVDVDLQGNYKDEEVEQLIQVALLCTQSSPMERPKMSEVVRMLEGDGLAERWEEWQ
Protocol: as §1

[2] = target: T4, intracellular domain of BRI1 (BRI1-KD) (Arabidopsis thaliana, UniProt O22476); assay: Yeast two-hybrid interaction with BRI1-KD; assay type: binding
T4 construct: expressed in transfected cells; host or cells: yeast strain MaV203
T4 sequence (O22476 828-1196): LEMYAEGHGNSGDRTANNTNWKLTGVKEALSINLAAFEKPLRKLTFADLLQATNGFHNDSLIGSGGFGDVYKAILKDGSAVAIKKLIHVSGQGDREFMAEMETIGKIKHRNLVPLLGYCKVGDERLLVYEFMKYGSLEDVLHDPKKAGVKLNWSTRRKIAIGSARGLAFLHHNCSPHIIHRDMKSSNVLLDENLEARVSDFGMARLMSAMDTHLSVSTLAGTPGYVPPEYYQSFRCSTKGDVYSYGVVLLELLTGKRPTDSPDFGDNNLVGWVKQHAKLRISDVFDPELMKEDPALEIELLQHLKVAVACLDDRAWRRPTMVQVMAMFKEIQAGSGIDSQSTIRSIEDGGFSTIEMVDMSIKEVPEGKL
Protocol: as §1

B1: BKI1: BRI1-interacting protein of 337 amino acids, negative regulator of brassinosteroid signaling (SEQ ID NO:1) (protein, listed as Arabidopsis thaliana)
chain: METNLQQVKNSSQTFSEKQNPKQEASPSPISSTCSSPSHDFSFTISLQPLSSSSKHISPTLRSPSKTTSSYQQTDPFAVDLSPADEIFFHGHLLPLHLLSHLPVSPRTSTGSYNDGFTLPVKDILPDQPTNNNNNTENAITNISTEAKDDNTEDKAEGEIRVKTKPIKSFSLFGLSKWRKGFESNEREQEQQQQKIKKPMSLDLSHAVKKYIRMLFQKRGNGTQFWNRRQTSSYSFSSSLMGPNGNSKTMINGSYNKRDLIRGRRGELFSAPASMRTSPTNSGHLRVSTAGLSSSSGSTSSSSSDSTMEELQAAIQAAIAHCKNSSAVDRDDKVKDS
interaction with kinase domain of CLV1 in yeast (CLV1): does not interact | interaction with kinase-inactive BRI1 relative to kinase active BRI1 [1]: stronger | Km (BRI1 kinase): ~1.55 µM | interaction with kinase domain of BAK1 in yeast (BAK1): not | interaction with kinase domain of BRI1 in yeast [2]: associated specifically

Source: US8008542B2, “Compositions, cells, and plants that include BKI1, a negative regulator of BRI1-mediated BR signaling” (The Salk Institute for Biological Studies, priority 2007, dated 2011)
